Data set [1] concerns the molecule itself. The data set is described as follows: negative-stain transmission electron microscopy.
The target of data set [2] is T1, FtsA(E14R) (E. coli, UniProt P0ABH0 1-420, E14R).
T1 sequence: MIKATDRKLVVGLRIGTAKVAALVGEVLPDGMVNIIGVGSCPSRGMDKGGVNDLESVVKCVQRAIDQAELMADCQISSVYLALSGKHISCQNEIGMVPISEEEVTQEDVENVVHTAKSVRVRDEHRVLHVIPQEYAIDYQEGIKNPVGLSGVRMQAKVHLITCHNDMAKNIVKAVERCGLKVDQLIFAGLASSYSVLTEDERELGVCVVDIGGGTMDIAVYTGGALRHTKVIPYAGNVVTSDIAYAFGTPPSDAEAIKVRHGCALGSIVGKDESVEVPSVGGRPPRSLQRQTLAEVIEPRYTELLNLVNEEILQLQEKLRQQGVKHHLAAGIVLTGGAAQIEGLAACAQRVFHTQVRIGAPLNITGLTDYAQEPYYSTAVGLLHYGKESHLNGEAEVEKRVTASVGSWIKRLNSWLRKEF
Kind of data set: co-sedimentation.

B1: FtsZ (Escherichia coli, wild type) (natural protein)
chain: MFEPMELTNDAVIKVIGVGGGGGNAVEHMVRERIEGVEFFAVNTDAQALRKTAVGQTIQIGSGITKGLGAGANPEVGRNAADEDRDALRAALEGADMVFIAAGMGGGTGTGAAPVVAEVAKDLGILTVAVVTKPFNFEGKKRMAFAEQGITELSKHVDSLITIPNDKLLKVLGRGISLLDAFGAANDVLKGAVQGIAELITRPGLMNVDFADVRTVMSEMGYAMMGSGVASGEDRAEEAAEMAISSPLLEDIDLSGARGVLVNITAGFDLRLDEFETVGNTIRAFASDNATVVIGTSLDPDMNDELRVTVVATGIGMDKRPEITLVTNKQVQQPVMDRYQQHGMAPLTQEQKPVAKVVNDNAPQTAKEPDYLDIPAFLRKQAD
Take B1: the binding result in data set [1] and in data set [2] was “binds” each time.

The record behind these values is paper doi:10.1101/2021.01.12.426377 (bioRxiv, 2021).
